# Results from article PMC5534435, “The Amyloid Precursor Protein Is a Conserved Receptor for Slit to Mediate Axon Guidance” (eNeuro, 2017).
# Target: T1, Rat Robo1 tagged with the hemagglutinin (Robo1-HA) (rat, UniProt O55005 26-1651)
# T1 construct: Roundabout homolog 1 (Robo1), rat; The sentence with the Kd calls it Robo2, the methods name only rat Robo1-HA; also called Robo-HA; HA-Robo; source: HEK293, transfected
# Experiment: binding of alkaline phosphatase-tagged ligand to transfected cells; HEK293 cells transfected with FL APP or HA-Robo incubated with serial dilutions of supernatants with AP-tagged Slit2 and 1 μg/ml heparin, 2 h at 37°C; AP activity in cell lysates; Hill equation, Scatchard plot
# Details: partners not purified
# T1 sequence (O55005 26-1651): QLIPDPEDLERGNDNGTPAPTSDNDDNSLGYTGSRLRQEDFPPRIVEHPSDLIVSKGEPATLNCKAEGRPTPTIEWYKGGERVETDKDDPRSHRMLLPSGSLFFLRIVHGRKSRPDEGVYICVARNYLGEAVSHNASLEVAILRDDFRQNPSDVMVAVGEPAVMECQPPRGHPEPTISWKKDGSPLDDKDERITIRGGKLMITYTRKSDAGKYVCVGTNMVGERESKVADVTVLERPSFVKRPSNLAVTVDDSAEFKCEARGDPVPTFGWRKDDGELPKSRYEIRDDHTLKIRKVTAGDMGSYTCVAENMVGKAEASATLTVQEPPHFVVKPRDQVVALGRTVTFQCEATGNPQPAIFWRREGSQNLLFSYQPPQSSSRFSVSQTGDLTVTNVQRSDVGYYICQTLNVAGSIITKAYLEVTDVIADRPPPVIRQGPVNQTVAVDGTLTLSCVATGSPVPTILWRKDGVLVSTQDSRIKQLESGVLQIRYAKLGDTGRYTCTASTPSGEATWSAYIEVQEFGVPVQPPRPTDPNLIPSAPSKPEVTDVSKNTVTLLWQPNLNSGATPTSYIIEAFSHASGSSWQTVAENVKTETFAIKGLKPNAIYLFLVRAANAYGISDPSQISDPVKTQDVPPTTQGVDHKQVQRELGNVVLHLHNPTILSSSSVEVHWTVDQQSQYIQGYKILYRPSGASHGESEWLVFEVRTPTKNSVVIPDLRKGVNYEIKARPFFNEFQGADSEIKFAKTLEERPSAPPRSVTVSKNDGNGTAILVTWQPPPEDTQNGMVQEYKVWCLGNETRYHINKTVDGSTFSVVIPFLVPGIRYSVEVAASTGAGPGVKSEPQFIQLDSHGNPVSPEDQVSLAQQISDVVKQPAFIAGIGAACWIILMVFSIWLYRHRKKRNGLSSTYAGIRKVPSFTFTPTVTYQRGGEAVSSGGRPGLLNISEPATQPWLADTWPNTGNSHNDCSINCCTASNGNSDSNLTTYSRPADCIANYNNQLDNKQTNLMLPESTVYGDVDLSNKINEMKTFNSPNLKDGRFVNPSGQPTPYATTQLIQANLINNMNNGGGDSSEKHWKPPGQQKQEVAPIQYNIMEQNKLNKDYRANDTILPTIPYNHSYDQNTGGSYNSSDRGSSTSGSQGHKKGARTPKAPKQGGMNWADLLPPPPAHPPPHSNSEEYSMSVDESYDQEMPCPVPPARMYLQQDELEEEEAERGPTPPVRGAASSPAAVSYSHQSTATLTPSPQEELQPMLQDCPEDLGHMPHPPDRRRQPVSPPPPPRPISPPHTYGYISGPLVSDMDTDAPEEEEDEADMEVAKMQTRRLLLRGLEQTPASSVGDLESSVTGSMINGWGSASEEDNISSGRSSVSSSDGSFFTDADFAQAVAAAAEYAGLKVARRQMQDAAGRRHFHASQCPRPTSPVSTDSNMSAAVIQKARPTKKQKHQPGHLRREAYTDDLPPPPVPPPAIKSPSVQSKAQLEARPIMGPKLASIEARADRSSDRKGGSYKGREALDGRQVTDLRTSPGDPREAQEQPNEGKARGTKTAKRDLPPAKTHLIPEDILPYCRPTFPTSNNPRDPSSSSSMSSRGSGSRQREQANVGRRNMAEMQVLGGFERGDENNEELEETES
binder,measurement,value
"FL Slit2 fused N terminally to the human alkaline phosphatase sequence (ligand, UniProt O94813 31-1529, looked up, Slit2, full length, put in place of Netrin 5 in the vector Ntn5.a-AP-His (Addgene); also called AP-tagged Slit2; alkaline phosphatase (AP)-tagged Slit2; source: HEK293T, transfected, in supernatant; not shown: alkaline phosphatase (human), C-terminal, kept) QCSCSGSTVDCHGLALRSVPRNIPRNTERLDLNGNNITRITKTDFAGLRHLRVLQLMENKISTIERGAFQDLKELERLRLNRNHLQLFPELLFLGTAKLYRLDLSENQIQAIPRKAFRGAVDIKNLQLDYNQISCIEDGAFRALRDLEVLTLNNNNITRLSVASFNHMPKLRTFRLHSNNLYCDCHLAWLSDWLRQRPRVGLYTQCMGPSHLRGHNVAEVQKREFVCSGHQSFMAPSCSVLHCPAACTCSNNIVDCRGKGLTEIPTNLPETITEIRLEQNTIKVIPPGAFSPYKKLRRIDLSNNQISELAPDAFQGLRSLNSLVLYGNKITELPKSLFEGLFSLQLLLLNANKINCLRVDAFQDLHNLNLLSLYDNKLQTIAKGTFSPLRAIQTMHLAQNPFICDCHLKWLADYLHTNPIETSGARCTSPRRLANKRIGQIKSKKFRCSAKEQYFIPGTEDYRSKLSGDCFADLACPEKCRCEGTTVDCSNQKLNKIPEHIPQYTAELRLNNNEFTVLEATGIFKKLPQLRKINFSNNKITDIEEGAFEGASGVNEILLTSNRLENVQHKMFKGLESLKTLMLRSNRITCVGNDSFIGLSSVRLLSLYDNQITTVAPGAFDTLHSLSTLNLLANPFNCNCYLAWLGEWLRKKRIVTGNPRCQKPYFLKEIPIQDVAIQDFTCDDGNDDNSCSPLSRCPTECTCLDTVVRCSNKGLKVLPKGIPRDVTELYLDGNQFTLVPKELSNYKHLTLIDLSNNRISTLSNQSFSNMTQLLTLILSYNRLRCIPPRTFDGLKSLRLLSLHGNDISVVPEGAFNDLSALSHLAIGANPLYCDCNMQWLSDWVKSEYKEPGIARCAGPGEMADKLLLTTPSKKFTCQGPVDVNILAKCNPCLSNPCKNDGTCNSDPVDFYRCTCPYGFKGQDCDVPIHACISNPCKHGGTCHLKEGEEDGFWCICADGFEGENCEVNVDDCEDNDCENNSTCVDGINNYTCLCPPEYTGELCEEKLDFCAQDLNPCQHDSKCILTPKGFKCDCTPGYVGEHCDIDFDDCQDNKCKNGAHCTDAVNGYTCICPEGYSGLFCEFSPPMVLPRTSPCDNFDCQNGAQCIVRINEPICQCLPGYQGEKCEKLVSVNFINKESYLQIPSAKVRPQTNITLQIATDEDSGILLYKGDKDHIAVELYRGRVRASYDTGSHPASAIYSVETINDGNFHIVELLALDQSLSLSVDGGNPKIITNLSKQSTLNFDSPLYVGGMPGKSNVASLRQAPGQNGTSFHGCIRNLYINSELQDFQKVPMQTGILPGCEPCHKKVCAHGTCQPSSQAGFTCECQEGWMGPLCDQRTNDPCLGNKCVHGTCLPINAFSYSCKCLEGHGGVLCDEEEDLFNPCQAIKCKHGKCRLSGLGQPYCECSSGYTGDSCDREISCRGERIRDYYQKQQGYAACQTTKKVSRLECRGGCAGGQCCGPLRSKRRKYSFECTDGSSFVDEVEKVVKCGCTRCVS",Kd,19.6 nM
